The record followed here is patent publication US20240199762A1 (PHILOGEN S P A, published 2024).

Assay [1] has as its target T1, porcine FAP (pFAP) extracellular domain (ECD) (pig, UniProt A5D7B7 39-760 (bovine entry)).
T1 construct: also called pFAP-ECD
T1 chain: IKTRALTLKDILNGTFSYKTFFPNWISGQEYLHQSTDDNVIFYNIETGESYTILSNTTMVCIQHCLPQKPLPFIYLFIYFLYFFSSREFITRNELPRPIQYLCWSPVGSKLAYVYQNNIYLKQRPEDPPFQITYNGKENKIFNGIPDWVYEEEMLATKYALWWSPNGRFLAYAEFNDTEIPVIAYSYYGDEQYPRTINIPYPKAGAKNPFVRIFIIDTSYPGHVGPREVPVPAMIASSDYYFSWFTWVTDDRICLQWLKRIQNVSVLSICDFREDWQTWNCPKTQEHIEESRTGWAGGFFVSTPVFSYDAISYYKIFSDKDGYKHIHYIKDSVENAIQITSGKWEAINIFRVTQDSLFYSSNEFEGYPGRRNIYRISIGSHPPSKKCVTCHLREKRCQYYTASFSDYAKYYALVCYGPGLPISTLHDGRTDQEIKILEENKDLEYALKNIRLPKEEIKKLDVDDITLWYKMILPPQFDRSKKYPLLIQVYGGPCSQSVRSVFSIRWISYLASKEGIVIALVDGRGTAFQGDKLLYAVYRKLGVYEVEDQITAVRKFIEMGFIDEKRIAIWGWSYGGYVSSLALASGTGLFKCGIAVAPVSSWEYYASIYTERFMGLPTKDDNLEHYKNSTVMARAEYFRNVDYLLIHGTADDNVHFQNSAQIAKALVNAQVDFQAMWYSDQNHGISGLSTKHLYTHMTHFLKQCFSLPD
Briefly: ELISA, 120 nM pFAP-ECD coated on Maxisorp plates. How it is done: (§1) Cross-reactivity of the anti-hFAP antibodies with oFAP-ECD and pFAP-ECD was tested using ELISA. 120 nM of oFAP-ECD or pFAP-ECD was coated on Maxisorp plates overnight at 4° C. […] Specifically, the C5 antibody was employed in IgG2a format, while all other antibodies, including the 7NP2 antibody, were in IgG1 format. The differences between the IgG2a and IgG1 formats are not expected to affect binding to FAP. After 3 washes with PBS, binding of the antibodies to oFAP-ECD and pFAP-ECD was detected using an anti-human or anti-murine antibody HRP conjugate.
In general terms: An ELISA detects its analyte on a solid surface through an enzyme-linked reagent.

Assay [2] addresses T2, human FAP-ECD (extracellular domain) recombinant fragment containing a C-terminal His6 tag (human, UniProt Q12884 26-760, randomly biotinylated with NHS ester-activated biotin (as used on the SA chip and Streptawell plates)).
T2 construct: also called biotinylated human FAP-ECD; biotinylated human FAP
T2 sequence: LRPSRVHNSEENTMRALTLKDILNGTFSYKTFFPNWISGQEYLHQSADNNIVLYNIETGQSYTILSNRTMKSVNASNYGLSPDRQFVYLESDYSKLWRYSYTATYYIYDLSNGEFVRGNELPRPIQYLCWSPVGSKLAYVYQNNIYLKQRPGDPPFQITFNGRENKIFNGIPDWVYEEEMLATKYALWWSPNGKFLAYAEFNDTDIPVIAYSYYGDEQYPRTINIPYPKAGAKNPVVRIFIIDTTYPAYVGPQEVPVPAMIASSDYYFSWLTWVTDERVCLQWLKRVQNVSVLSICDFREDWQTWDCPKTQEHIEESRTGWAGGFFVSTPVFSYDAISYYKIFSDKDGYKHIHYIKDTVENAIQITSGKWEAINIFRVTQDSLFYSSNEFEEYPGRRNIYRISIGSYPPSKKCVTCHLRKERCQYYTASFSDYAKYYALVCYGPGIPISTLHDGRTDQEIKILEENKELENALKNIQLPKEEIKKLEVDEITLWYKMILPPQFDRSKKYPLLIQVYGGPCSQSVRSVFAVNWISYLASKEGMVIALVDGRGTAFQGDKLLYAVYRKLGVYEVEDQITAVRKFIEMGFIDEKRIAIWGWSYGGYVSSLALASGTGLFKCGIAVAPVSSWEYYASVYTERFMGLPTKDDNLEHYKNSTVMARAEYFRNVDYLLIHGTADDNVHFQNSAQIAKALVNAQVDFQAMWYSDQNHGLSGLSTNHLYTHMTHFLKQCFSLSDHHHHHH
Briefly: epitope ELISA on biotinylated human FAP on Streptawell plates. The protocol: To evaluate binding, 100 nM of biotinylated human FAP were coated on Streptawell plates for 30 min at 37° C.
The C5 antibody in IgG2a format was incubated together with the 7NP2 antibody in IgG1 format, the F5 antibody in IgG1 format (WO2016/116399), the ESC11 antibody in IgG1 format (Fisher et al., (2012) Clin Cancer Res; 18(22)), or the (negative control) antibody KSF in IgG1 format for 1.5 h at room temperature at a concentration of 5 μg/mL in the antigen-coated wells. After 3 washes with PBS, binding of the antibodies to human FAP was detected using anti-human or anti-murine HRP conjugates (FIG. 7).

For assay [3], the target named is T3, ovine FAP (oFAP) extracellular domain (ECD) (sheep).
T3 construct: also called oFAP-ECD
T3 chain: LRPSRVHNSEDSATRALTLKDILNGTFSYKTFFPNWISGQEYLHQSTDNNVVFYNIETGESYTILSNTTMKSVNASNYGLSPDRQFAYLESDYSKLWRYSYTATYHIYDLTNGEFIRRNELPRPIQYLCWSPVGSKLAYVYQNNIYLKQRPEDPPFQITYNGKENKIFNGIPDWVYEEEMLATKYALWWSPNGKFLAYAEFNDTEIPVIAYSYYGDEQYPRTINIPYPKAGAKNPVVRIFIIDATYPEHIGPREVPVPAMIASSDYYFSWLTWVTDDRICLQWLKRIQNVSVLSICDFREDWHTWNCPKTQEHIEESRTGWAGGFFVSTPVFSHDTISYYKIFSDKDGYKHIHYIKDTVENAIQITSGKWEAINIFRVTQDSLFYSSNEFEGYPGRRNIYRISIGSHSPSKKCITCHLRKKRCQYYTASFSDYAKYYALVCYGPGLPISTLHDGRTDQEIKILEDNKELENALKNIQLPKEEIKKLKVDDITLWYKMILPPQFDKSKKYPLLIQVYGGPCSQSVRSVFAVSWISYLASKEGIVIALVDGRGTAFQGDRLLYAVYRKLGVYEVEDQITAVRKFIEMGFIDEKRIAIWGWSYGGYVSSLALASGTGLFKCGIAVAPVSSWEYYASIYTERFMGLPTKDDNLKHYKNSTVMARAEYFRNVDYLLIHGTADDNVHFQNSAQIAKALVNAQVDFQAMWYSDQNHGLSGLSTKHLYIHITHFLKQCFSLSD
Put plainly: ELISA, 120 nM oFAP-ECD coated, antibody at 5 ug/mL. The protocol:
as §1

B1: anti-hen egg lysozyme antibody KSF in IgG1 format (antibody, V domains shown)
VH: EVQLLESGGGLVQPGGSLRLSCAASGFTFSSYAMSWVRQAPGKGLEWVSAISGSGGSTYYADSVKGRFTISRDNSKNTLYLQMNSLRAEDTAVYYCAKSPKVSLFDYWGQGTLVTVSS
VL: SSELTQDPAVSVALGQTVRITCQGDSLRSYYASWYQQKPGQAPVLVIYGKNNRPSGIPDRFSGSSSGNTASLTITGAQAEDEADYYCQSSPLNRLAVVFGGGTKLTVLG
notes: Negative control; It was conjugated to FITC in the immunofluorescence and ex vivo experiments; also called KSF IgG1; KSF(IgG1)
In the case of B1, the binding result in assay [1] and in assay [2] was “no binding (tested: 5 µg/mL)” throughout.

B2: anti-FAP antibody 7NP2 in IgG1 format (antibody, V domains shown)
VH: EVQLLESGGGLVQPGGSLRLSCAASGFTFSSYAMSWVRQAPGKGLEWVSAIGSVGGPTYYADSVKGRFTISRDNSKNTLYLQMNSLRAEDTAVYYCAKRLAWFDYWGQGTLVTVSS
VL: EIVLTQSPGTLSLSPGERATLSCRASQSVSSSYLAWYQQKPGQAPRLLIYGASSRATGIPDRFSGSGSGTDFTLTISRLEPEDFAVYYCQQSGKGPLTFGQGTKVEIKR
notes: also called 7NP2 IgG1; 7NP2(IgG1)
For the molecule B2, the binding result in assay [3] is recorded as “binds”.
